{"source": "paper PMC11317151", "about": "“DNA binding and bridging by human CtIP in the healthy and diseased states” (Nucleic Acids Research, 2023)", "data": [{"molecular_target": "the molecule itself", "test": "SEC-MALS; Superose 6 10/300; samples of 0.5–1 mg/ml injected; 20 mM Tris–Cl pH 8.0, 200 mM NaCl, 0.5 mM TCEP", "values": [{"protein": "CtIP ΔN500 (domain or fragment, human, UniProt Q99708 500-897, looked up, CtIP, human, the first 499 amino acids removed (begins at residue 500); a and b are two SEC fractions (dimer and monomer peaks) of the same preparation; also called ΔN500a; ΔN500b; source: High-Five insect cells (baculovirus), purified (StrepTactin, MonoQ, Superose 6 SEC); not shown: StrepII, C-terminal, kept) IQRQEKSQGSETSKNKFRQVTLYEALKTIPKGFSSSRKASDGNCTLPKDSPGEPCSQECIILQPLNKCSPDNKPSLQIKEENAVFKIPLRPRESLETENVLDDIKSAGSHEPIKIQTRSDHGGCELASVLQLNPCRTGKIKSLQNNQDVSFENIQWSIDPGADLSQYKMDVTVIDTKDGSQSKLGGETVDMDCTLVSETVLLKMKKQEQKGEKSSNEERKMNDSLEDMFDRTTHEEYESCLADSFSQAADEEEELSTATKKLHTHGDKQDKVKQKAFVEPYFKGDERETSLQNFPHIEVVRKKEERRKLLGHTCKECEIYYADMPAEEREKKLASCSRHRFRYIPPNTPENFWEVGFPSTQTCMERGYIKEDLDPCPRPKRRQPYNAIFSPKGKEQKT", "stoichiometry N": 2}, {"protein": "CtIP ΔC782 (domain or fragment, human, UniProt Q99708 1-782, looked up, designed to be equivalent to the deletion of Seckel-2 syndrome; also called ΔC782 CtIP; Seckel-2 variant) MNISGSSCGSPNSADTSSDFKDLWTKLKECHDREVQGLQVKVTKLKQERILDAQRLEEFFTKNQQLREQQKVLHETIKVLEDRLRAGLCDRCAVTEEHMRKKQQEFENIRQQNLKLITELMNERNTLQEENKKLSEQLQQKIENDQQHQAAELECEEDVIPDSPITAFSFSGVNRLRRKENPHVRYIEQTHTKLEHSVCANEMRKVSKSSTHPQHNPNENEILVADTYDQSQSPMAKAHGTSSYTPDKSSFNLATVVAETLGLGVQEESETQGPMSPLGDELYHCLEGNHKKQPFEESTRNTEDSLRFSDSTSKTPPQEELPTRVSSPVFGATSSIKSGLDLNTSLSPSLLQPGKKKHLKTLPFSNTCISRLEKTRSKSEDSALFTHHSLGSEVNKIIIQSSNKQILINKNISESLGEQNRTEYGKDSNTDKHLEPLKSLGGRTSKRKKTEEESEHEVSCPQASFDKENAFPFPMDNQFSMNGDCVMDKPLDLSDRFSAIQRQEKSQGSETSKNKFRQVTLYEALKTIPKGFSSSRKASDGNCTLPKDSPGEPCSQECIILQPLNKCSPDNKPSLQIKEENAVFKIPLRPRESLETENVLDDIKSAGSHEPIKIQTRSDHGGCELASVLQLNPCRTGKIKSLQNNQDVSFENIQWSIDPGADLSQYKMDVTVIDTKDGSQSKLGGETVDMDCTLVSETVLLKMKKQEQKGEKSSNEERKMNDSLEDMFDRTTHEEYESCLADSFSQAADEEEELSTATKKLHTHGDKQDKVKQKAFVEPYFK", "stoichiometry N": 4}, {"protein": "Wild type CtIP (natural protein, human, UniProt Q99708 1-897, looked up, CtIP, human DNA repair factor, wild type, full length; the tag was probably cleaved from the wild type too; also called WT-CtIP; CtIP-WT) MNISGSSCGSPNSADTSSDFKDLWTKLKECHDREVQGLQVKVTKLKQERILDAQRLEEFFTKNQQLREQQKVLHETIKVLEDRLRAGLCDRCAVTEEHMRKKQQEFENIRQQNLKLITELMNERNTLQEENKKLSEQLQQKIENDQQHQAAELECEEDVIPDSPITAFSFSGVNRLRRKENPHVRYIEQTHTKLEHSVCANEMRKVSKSSTHPQHNPNENEILVADTYDQSQSPMAKAHGTSSYTPDKSSFNLATVVAETLGLGVQEESETQGPMSPLGDELYHCLEGNHKKQPFEESTRNTEDSLRFSDSTSKTPPQEELPTRVSSPVFGATSSIKSGLDLNTSLSPSLLQPGKKKHLKTLPFSNTCISRLEKTRSKSEDSALFTHHSLGSEVNKIIIQSSNKQILINKNISESLGEQNRTEYGKDSNTDKHLEPLKSLGGRTSKRKKTEEESEHEVSCPQASFDKENAFPFPMDNQFSMNGDCVMDKPLDLSDRFSAIQRQEKSQGSETSKNKFRQVTLYEALKTIPKGFSSSRKASDGNCTLPKDSPGEPCSQECIILQPLNKCSPDNKPSLQIKEENAVFKIPLRPRESLETENVLDDIKSAGSHEPIKIQTRSDHGGCELASVLQLNPCRTGKIKSLQNNQDVSFENIQWSIDPGADLSQYKMDVTVIDTKDGSQSKLGGETVDMDCTLVSETVLLKMKKQEQKGEKSSNEERKMNDSLEDMFDRTTHEEYESCLADSFSQAADEEEELSTATKKLHTHGDKQDKVKQKAFVEPYFKGDERETSLQNFPHIEVVRKKEERRKLLGHTCKECEIYYADMPAEEREKKLASCSRHRFRYIPPNTPENFWEVGFPSTQTCMERGYIKEDLDPCPRPKRRQPYNAIFSPKGKEQKT", "stoichiometry N": 4}, {"protein": "CtIP-R100W (natural protein, human, UniProt Q99708 1-897, looked up, CtIP, human, with the point mutation R100W that is associated with Seckel-like disease and early onset breast cancer; Expected tetramer mass is printed as 404 kDa, as for the wild type; also called R100W CtIP; source: insect cells (baculovirus, pACEBac1), purified) MNISGSSCGSPNSADTSSDFKDLWTKLKECHDREVQGLQVKVTKLKQERILDAQRLEEFFTKNQQLREQQKVLHETIKVLEDRLRAGLCDRCAVTEEHMWKKQQEFENIRQQNLKLITELMNERNTLQEENKKLSEQLQQKIENDQQHQAAELECEEDVIPDSPITAFSFSGVNRLRRKENPHVRYIEQTHTKLEHSVCANEMRKVSKSSTHPQHNPNENEILVADTYDQSQSPMAKAHGTSSYTPDKSSFNLATVVAETLGLGVQEESETQGPMSPLGDELYHCLEGNHKKQPFEESTRNTEDSLRFSDSTSKTPPQEELPTRVSSPVFGATSSIKSGLDLNTSLSPSLLQPGKKKHLKTLPFSNTCISRLEKTRSKSEDSALFTHHSLGSEVNKIIIQSSNKQILINKNISESLGEQNRTEYGKDSNTDKHLEPLKSLGGRTSKRKKTEEESEHEVSCPQASFDKENAFPFPMDNQFSMNGDCVMDKPLDLSDRFSAIQRQEKSQGSETSKNKFRQVTLYEALKTIPKGFSSSRKASDGNCTLPKDSPGEPCSQECIILQPLNKCSPDNKPSLQIKEENAVFKIPLRPRESLETENVLDDIKSAGSHEPIKIQTRSDHGGCELASVLQLNPCRTGKIKSLQNNQDVSFENIQWSIDPGADLSQYKMDVTVIDTKDGSQSKLGGETVDMDCTLVSETVLLKMKKQEQKGEKSSNEERKMNDSLEDMFDRTTHEEYESCLADSFSQAADEEEELSTATKKLHTHGDKQDKVKQKAFVEPYFKGDERETSLQNFPHIEVVRKKEERRKLLGHTCKECEIYYADMPAEEREKKLASCSRHRFRYIPPNTPENFWEVGFPSTQTCMERGYIKEDLDPCPRPKRRQPYNAIFSPKGKEQKT", "stoichiometry N": 4}, {"protein": "CtIP ΔC608 (domain or fragment, human, UniProt Q99708 1-608, looked up, designed to be equivalent to the deletion of Jawad syndrome; also called ΔC608 CtIP; Jawad variant) MNISGSSCGSPNSADTSSDFKDLWTKLKECHDREVQGLQVKVTKLKQERILDAQRLEEFFTKNQQLREQQKVLHETIKVLEDRLRAGLCDRCAVTEEHMRKKQQEFENIRQQNLKLITELMNERNTLQEENKKLSEQLQQKIENDQQHQAAELECEEDVIPDSPITAFSFSGVNRLRRKENPHVRYIEQTHTKLEHSVCANEMRKVSKSSTHPQHNPNENEILVADTYDQSQSPMAKAHGTSSYTPDKSSFNLATVVAETLGLGVQEESETQGPMSPLGDELYHCLEGNHKKQPFEESTRNTEDSLRFSDSTSKTPPQEELPTRVSSPVFGATSSIKSGLDLNTSLSPSLLQPGKKKHLKTLPFSNTCISRLEKTRSKSEDSALFTHHSLGSEVNKIIIQSSNKQILINKNISESLGEQNRTEYGKDSNTDKHLEPLKSLGGRTSKRKKTEEESEHEVSCPQASFDKENAFPFPMDNQFSMNGDCVMDKPLDLSDRFSAIQRQEKSQGSETSKNKFRQVTLYEALKTIPKGFSSSRKASDGNCTLPKDSPGEPCSQECIILQPLNKCSPDNKPSLQIKEENAVFKIPLRPRESLETENVLDDIKSAGS", "stoichiometry N": 4}, {"protein": "CtIP ΔN541 (domain or fragment, human, UniProt Q99708 541-897, looked up, CtIP, human, the first 540 amino acids removed (begins at residue 541); a and b are two SEC fractions (dimer and monomer peaks) of the same preparation; No tag cleavage is described in its purification; also called ΔN541a; ΔN541b; source: High-Five insect cells (baculovirus), purified (StrepTactin, MonoQ, Superose 6 SEC)) GNCTLPKDSPGEPCSQECIILQPLNKCSPDNKPSLQIKEENAVFKIPLRPRESLETENVLDDIKSAGSHEPIKIQTRSDHGGCELASVLQLNPCRTGKIKSLQNNQDVSFENIQWSIDPGADLSQYKMDVTVIDTKDGSQSKLGGETVDMDCTLVSETVLLKMKKQEQKGEKSSNEERKMNDSLEDMFDRTTHEEYESCLADSFSQAADEEEELSTATKKLHTHGDKQDKVKQKAFVEPYFKGDERETSLQNFPHIEVVRKKEERRKLLGHTCKECEIYYADMPAEEREKKLASCSRHRFRYIPPNTPENFWEVGFPSTQTCMERGYIKEDLDPCPRPKRRQPYNAIFSPKGKEQKT", "stoichiometry N": 2}]}, {"molecular_target": "the molecule itself", "test": "native gel or EMSA; native blue PAGE of purified CtIP proteins, compared with the wild type (tetramer) and CtIP-L27E (dimer) reference proteins", "values": [{"protein": "CtIP-L27E (natural protein, human, UniProt Q99708 1-897, looked up, CtIP, human, with the point mutation L27E in the N-terminal tetramerisation interface; Probably made like the wild type (insect cells, StrepII tag)) MNISGSSCGSPNSADTSSDFKDLWTKEKECHDREVQGLQVKVTKLKQERILDAQRLEEFFTKNQQLREQQKVLHETIKVLEDRLRAGLCDRCAVTEEHMRKKQQEFENIRQQNLKLITELMNERNTLQEENKKLSEQLQQKIENDQQHQAAELECEEDVIPDSPITAFSFSGVNRLRRKENPHVRYIEQTHTKLEHSVCANEMRKVSKSSTHPQHNPNENEILVADTYDQSQSPMAKAHGTSSYTPDKSSFNLATVVAETLGLGVQEESETQGPMSPLGDELYHCLEGNHKKQPFEESTRNTEDSLRFSDSTSKTPPQEELPTRVSSPVFGATSSIKSGLDLNTSLSPSLLQPGKKKHLKTLPFSNTCISRLEKTRSKSEDSALFTHHSLGSEVNKIIIQSSNKQILINKNISESLGEQNRTEYGKDSNTDKHLEPLKSLGGRTSKRKKTEEESEHEVSCPQASFDKENAFPFPMDNQFSMNGDCVMDKPLDLSDRFSAIQRQEKSQGSETSKNKFRQVTLYEALKTIPKGFSSSRKASDGNCTLPKDSPGEPCSQECIILQPLNKCSPDNKPSLQIKEENAVFKIPLRPRESLETENVLDDIKSAGSHEPIKIQTRSDHGGCELASVLQLNPCRTGKIKSLQNNQDVSFENIQWSIDPGADLSQYKMDVTVIDTKDGSQSKLGGETVDMDCTLVSETVLLKMKKQEQKGEKSSNEERKMNDSLEDMFDRTTHEEYESCLADSFSQAADEEEELSTATKKLHTHGDKQDKVKQKAFVEPYFKGDERETSLQNFPHIEVVRKKEERRKLLGHTCKECEIYYADMPAEEREKKLASCSRHRFRYIPPNTPENFWEVGFPSTQTCMERGYIKEDLDPCPRPKRRQPYNAIFSPKGKEQKT", "binding result": "binds"}]}]}
